Data published in patent US20190300617A1 (Amgen, published 2019).
Like-named read-outs stand apart in the source and are kept apart here.

Assays:
Assay in all cases: cell-based or functional assay
[1] = target: T1, human CGRP receptor (human, UniProt Q16602 23-461; O60894 27-148)
[2] = target: T1, human CGRP receptor; remark: listed apart in the source
[3] = target: T1, human CGRP receptor; remark: listed apart in the source

T1 sequence (Q16602 23-461, chain 1 of 2): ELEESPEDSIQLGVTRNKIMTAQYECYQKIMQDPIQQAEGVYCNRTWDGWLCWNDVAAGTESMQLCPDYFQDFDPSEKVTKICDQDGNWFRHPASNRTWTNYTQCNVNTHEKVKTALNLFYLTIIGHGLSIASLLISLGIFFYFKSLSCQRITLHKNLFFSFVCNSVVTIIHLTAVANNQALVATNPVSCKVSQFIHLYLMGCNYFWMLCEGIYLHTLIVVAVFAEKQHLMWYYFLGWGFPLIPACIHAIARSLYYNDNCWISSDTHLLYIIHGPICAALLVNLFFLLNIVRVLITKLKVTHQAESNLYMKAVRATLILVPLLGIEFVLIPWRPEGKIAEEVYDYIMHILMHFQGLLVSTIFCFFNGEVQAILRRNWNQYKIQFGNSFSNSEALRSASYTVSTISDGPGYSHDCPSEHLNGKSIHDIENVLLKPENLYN
T1 sequence (O60894 27-148, chain 2 of 2): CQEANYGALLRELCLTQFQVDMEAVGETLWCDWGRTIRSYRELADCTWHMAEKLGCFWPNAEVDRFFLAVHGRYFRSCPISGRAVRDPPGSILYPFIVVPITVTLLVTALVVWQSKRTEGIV

| Binder | % Relative Potency by Cell-Based Bioassay [1] | % Relative Potency by Cell-Based Bioassay [2] | also measured |
| --- | --- | --- | --- |
| Erenumab HIC-HPLC Pre-peak Fraction F1 (antibody, human IgG2, lambda, V domains shown, Asp105 isomerization 0.6%; Asp105 succinimide 0.2%; Asn102 deamidation ND; Leu195/Ser196 cleavage 10.9%; further cleavage sites Leu315/Thr316, Ser197/Val198, Leu192/Tyr193, Gly108/Tyr109, Asp105/Ser106) VH: QVQLVESGGGVVQPGRSLRLSCAASGFTFSSFGMHWVRQAPGKGLEWVAVISFDGSIKYSVDSVKGRFTISRDNSKNTLFLQMNSLRAEDTAVYYCARDRLNYYDSSGYYHYKYYGMAVWGQGTTVTVSS VL: QSVLTQPPSVSAAPGQKVTISCSGSSSNIGNNYVSWYQQLPGTAPKLLIYDNNKRPSGIPDRFSGSKSGTSTTLGITGLQTGDEADYYCGTWDSRLSAVVFGGGTKLTVLG | 33% | – | – |
| Erenumab CEX-HPLC Acidic Fraction F4 (antibody, human IgG2, lambda, V domains shown, disulfide isoforms by RP-HPLC: 7.0% IgG2-B, 52.5% IgG2-A/B, 39.4% IgG2-A) VH: QVQLVESGGGVVQPGRSLRLSCAASGFTFSSFGMHWVRQAPGKGLEWVAVISFDGSIKYSVDSVKGRFTISRDNSKNTLFLQMNSLRAEDTAVYYCARDRLNYYDSSGYYHYKYYGMAVWGQGTTVTVSS VL: QSVLTQPPSVSAAPGQKVTISCSGSSSNIGNNYVSWYQQLPGTAPKLLIYDNNKRPSGIPDRFSGSKSGTSTTLGITGLQTGDEADYYCGTWDSRLSAVVFGGGTKLTVLG | – | 82% | – |
| Erenumab CEX-HPLC Basic Fraction F9 (antibody, human IgG2, lambda, V domains shown, disulfide isoforms by RP-HPLC: 11.0% IgG2-B, 31.3% IgG2-A/B, 55.9% IgG2-A) VH: QVQLVESGGGVVQPGRSLRLSCAASGFTFSSFGMHWVRQAPGKGLEWVAVISFDGSIKYSVDSVKGRFTISRDNSKNTLFLQMNSLRAEDTAVYYCARDRLNYYDSSGYYHYKYYGMAVWGQGTTVTVSS VL: QSVLTQPPSVSAAPGQKVTISCSGSSSNIGNNYVSWYQQLPGTAPKLLIYDNNKRPSGIPDRFSGSKSGTSTTLGITGLQTGDEADYYCGTWDSRLSAVVFGGGTKLTVLG | – | 98% | – |
| Erenumab CEX-HPLC Main Fraction F5 (antibody, human IgG2, lambda, V domains shown, disulfide isoforms by RP-HPLC: 2.9% IgG2-B, 33.9% IgG2-A/B, 62.4% IgG2-A) VH: QVQLVESGGGVVQPGRSLRLSCAASGFTFSSFGMHWVRQAPGKGLEWVAVISFDGSIKYSVDSVKGRFTISRDNSKNTLFLQMNSLRAEDTAVYYCARDRLNYYDSSGYYHYKYYGMAVWGQGTTVTVSS VL: QSVLTQPPSVSAAPGQKVTISCSGSSSNIGNNYVSWYQQLPGTAPKLLIYDNNKRPSGIPDRFSGSKSGTSTTLGITGLQTGDEADYYCGTWDSRLSAVVFGGGTKLTVLG | – | 101% | – |
| Erenumab CEX-HPLC Main Fraction F6 (antibody, human IgG2, lambda, V domains shown, disulfide isoforms by RP-HPLC: 3.9% IgG2-B, 27.8% IgG2-A/B, 65.5% IgG2-A) VH: QVQLVESGGGVVQPGRSLRLSCAASGFTFSSFGMHWVRQAPGKGLEWVAVISFDGSIKYSVDSVKGRFTISRDNSKNTLFLQMNSLRAEDTAVYYCARDRLNYYDSSGYYHYKYYGMAVWGQGTTVTVSS VL: QSVLTQPPSVSAAPGQKVTISCSGSSSNIGNNYVSWYQQLPGTAPKLLIYDNNKRPSGIPDRFSGSKSGTSTTLGITGLQTGDEADYYCGTWDSRLSAVVFGGGTKLTVLG | – | 92% | – |
| Erenumab HIC-HPLC Pre-peak Fraction F2 (antibody, human IgG2, lambda, V domains shown, Asp105 isomerization (isoAsp) 26.4%; Asp105 succinimide 1.4%; Asn102 deamidation 0.1%; Leu195/Ser196 cleavage 1.0%) VH: QVQLVESGGGVVQPGRSLRLSCAASGFTFSSFGMHWVRQAPGKGLEWVAVISFDGSIKYSVDSVKGRFTISRDNSKNTLFLQMNSLRAEDTAVYYCARDRLNYYDSSGYYHYKYYGMAVWGQGTTVTVSS VL: QSVLTQPPSVSAAPGQKVTISCSGSSSNIGNNYVSWYQQLPGTAPKLLIYDNNKRPSGIPDRFSGSKSGTSTTLGITGLQTGDEADYYCGTWDSRLSAVVFGGGTKLTVLG | 24% | – | – |
| Erenumab HIC-HPLC Pre-peak Fraction F3 (antibody, human IgG2, lambda, V domains shown, Asp105 isomerization (isoAsp) 19.6%; Asp105 succinimide 12.6%; Asn102 deamidation 1.2%; Leu195/Ser196 cleavage 0.5%) VH: QVQLVESGGGVVQPGRSLRLSCAASGFTFSSFGMHWVRQAPGKGLEWVAVISFDGSIKYSVDSVKGRFTISRDNSKNTLFLQMNSLRAEDTAVYYCARDRLNYYDSSGYYHYKYYGMAVWGQGTTVTVSS VL: QSVLTQPPSVSAAPGQKVTISCSGSSSNIGNNYVSWYQQLPGTAPKLLIYDNNKRPSGIPDRFSGSKSGTSTTLGITGLQTGDEADYYCGTWDSRLSAVVFGGGTKLTVLG | 35% | – | – |
| Erenumab SE-UHPLC Fraction HMW 2 (antibody, human IgG2, lambda, V domains shown) VH: QVQLVESGGGVVQPGRSLRLSCAASGFTFSSFGMHWVRQAPGKGLEWVAVISFDGSIKYSVDSVKGRFTISRDNSKNTLFLQMNSLRAEDTAVYYCARDRLNYYDSSGYYHYKYYGMAVWGQGTTVTVSS VL: QSVLTQPPSVSAAPGQKVTISCSGSSSNIGNNYVSWYQQLPGTAPKLLIYDNNKRPSGIPDRFSGSKSGTSTTLGITGLQTGDEADYYCGTWDSRLSAVVFGGGTKLTVLG | – | – | % Relative Potency by Cell-Based Bioassay [3]: 62% |
| Erenumab CEX-HPLC Acidic Fraction F2 (antibody, human IgG2, lambda, V domains shown, disulfide isoforms by RP-HPLC: 21.4% IgG2-B, 40.4% IgG2-A/B, 35.8% IgG2-A) VH: QVQLVESGGGVVQPGRSLRLSCAASGFTFSSFGMHWVRQAPGKGLEWVAVISFDGSIKYSVDSVKGRFTISRDNSKNTLFLQMNSLRAEDTAVYYCARDRLNYYDSSGYYHYKYYGMAVWGQGTTVTVSS VL: QSVLTQPPSVSAAPGQKVTISCSGSSSNIGNNYVSWYQQLPGTAPKLLIYDNNKRPSGIPDRFSGSKSGTSTTLGITGLQTGDEADYYCGTWDSRLSAVVFGGGTKLTVLG | – | 58% | – |
| Erenumab SE-UHPLC Fraction Main (antibody, human IgG2, lambda, V domains shown) VH: QVQLVESGGGVVQPGRSLRLSCAASGFTFSSFGMHWVRQAPGKGLEWVAVISFDGSIKYSVDSVKGRFTISRDNSKNTLFLQMNSLRAEDTAVYYCARDRLNYYDSSGYYHYKYYGMAVWGQGTTVTVSS VL: QSVLTQPPSVSAAPGQKVTISCSGSSSNIGNNYVSWYQQLPGTAPKLLIYDNNKRPSGIPDRFSGSKSGTSTTLGITGLQTGDEADYYCGTWDSRLSAVVFGGGTKLTVLG | – | – | % Relative Potency by Cell-Based Bioassay [3]: 97% |
| Erenumab HIC-HPLC Main Fraction F5 (antibody, human IgG2, lambda, V domains shown, Asp105 isomerization ND; Asp105 succinimide 0.1%; Asn102 deamidation ND; Leu195/Ser196 cleavage 0.3%) VH: QVQLVESGGGVVQPGRSLRLSCAASGFTFSSFGMHWVRQAPGKGLEWVAVISFDGSIKYSVDSVKGRFTISRDNSKNTLFLQMNSLRAEDTAVYYCARDRLNYYDSSGYYHYKYYGMAVWGQGTTVTVSS VL: QSVLTQPPSVSAAPGQKVTISCSGSSSNIGNNYVSWYQQLPGTAPKLLIYDNNKRPSGIPDRFSGSKSGTSTTLGITGLQTGDEADYYCGTWDSRLSAVVFGGGTKLTVLG | 107% | – | – |
| Erenumab SE-UHPLC Fraction HMW 1 (antibody, human IgG2, lambda, V domains shown) VH: QVQLVESGGGVVQPGRSLRLSCAASGFTFSSFGMHWVRQAPGKGLEWVAVISFDGSIKYSVDSVKGRFTISRDNSKNTLFLQMNSLRAEDTAVYYCARDRLNYYDSSGYYHYKYYGMAVWGQGTTVTVSS VL: QSVLTQPPSVSAAPGQKVTISCSGSSSNIGNNYVSWYQQLPGTAPKLLIYDNNKRPSGIPDRFSGSKSGTSTTLGITGLQTGDEADYYCGTWDSRLSAVVFGGGTKLTVLG | – | – | % Relative Potency by Cell-Based Bioassay [3]: 42% |
| Erenumab CEX-HPLC Basic Fraction F7 (antibody, human IgG2, lambda, V domains shown, disulfide isoforms by RP-HPLC: 3.9% IgG2-B, 28.6% IgG2-A/B, 65.4% IgG2-A) VH: QVQLVESGGGVVQPGRSLRLSCAASGFTFSSFGMHWVRQAPGKGLEWVAVISFDGSIKYSVDSVKGRFTISRDNSKNTLFLQMNSLRAEDTAVYYCARDRLNYYDSSGYYHYKYYGMAVWGQGTTVTVSS VL: QSVLTQPPSVSAAPGQKVTISCSGSSSNIGNNYVSWYQQLPGTAPKLLIYDNNKRPSGIPDRFSGSKSGTSTTLGITGLQTGDEADYYCGTWDSRLSAVVFGGGTKLTVLG | – | 96% | – |
| Erenumab HIC-HPLC Post-peak Fraction F6 (antibody, human IgG2, lambda, V domains shown, Asp105 isomerization (isoAsp) 13.2%; Asp105 succinimide 0.1%; Asn102 deamidation ND; Leu195/Ser196 cleavage 0.6%) VH: QVQLVESGGGVVQPGRSLRLSCAASGFTFSSFGMHWVRQAPGKGLEWVAVISFDGSIKYSVDSVKGRFTISRDNSKNTLFLQMNSLRAEDTAVYYCARDRLNYYDSSGYYHYKYYGMAVWGQGTTVTVSS VL: QSVLTQPPSVSAAPGQKVTISCSGSSSNIGNNYVSWYQQLPGTAPKLLIYDNNKRPSGIPDRFSGSKSGTSTTLGITGLQTGDEADYYCGTWDSRLSAVVFGGGTKLTVLG | 77% | – | – |
| Erenumab CEX-HPLC Acidic Fraction F3 (antibody, human IgG2, lambda, V domains shown, disulfide isoforms by RP-HPLC: 11.2% IgG2-B, 55.1% IgG2-A/B, 32.4% IgG2-A) VH: QVQLVESGGGVVQPGRSLRLSCAASGFTFSSFGMHWVRQAPGKGLEWVAVISFDGSIKYSVDSVKGRFTISRDNSKNTLFLQMNSLRAEDTAVYYCARDRLNYYDSSGYYHYKYYGMAVWGQGTTVTVSS VL: QSVLTQPPSVSAAPGQKVTISCSGSSSNIGNNYVSWYQQLPGTAPKLLIYDNNKRPSGIPDRFSGSKSGTSTTLGITGLQTGDEADYYCGTWDSRLSAVVFGGGTKLTVLG | – | 71% | – |
| Erenumab HIC-HPLC Pre-peak Fraction F4 (antibody, human IgG2, lambda, V domains shown, Asp105 isomerization (isoAsp) 5.5%; Asp105 succinimide 4.3%; Asn102 deamidation 11.6%; Leu195/Ser196 cleavage 0.4%) VH: QVQLVESGGGVVQPGRSLRLSCAASGFTFSSFGMHWVRQAPGKGLEWVAVISFDGSIKYSVDSVKGRFTISRDNSKNTLFLQMNSLRAEDTAVYYCARDRLNYYDSSGYYHYKYYGMAVWGQGTTVTVSS VL: QSVLTQPPSVSAAPGQKVTISCSGSSSNIGNNYVSWYQQLPGTAPKLLIYDNNKRPSGIPDRFSGSKSGTSTTLGITGLQTGDEADYYCGTWDSRLSAVVFGGGTKLTVLG | 34% | – | – |
| Erenumab HIC-HPLC Post-peak Fraction F7 (antibody, human IgG2, lambda, V domains shown, Asp105 isomerization (isoAsp) 2.4%; Asp105 succinimide 0.1%; Asn102 deamidation ND; Leu195/Ser196 cleavage 1.1%) VH: QVQLVESGGGVVQPGRSLRLSCAASGFTFSSFGMHWVRQAPGKGLEWVAVISFDGSIKYSVDSVKGRFTISRDNSKNTLFLQMNSLRAEDTAVYYCARDRLNYYDSSGYYHYKYYGMAVWGQGTTVTVSS VL: QSVLTQPPSVSAAPGQKVTISCSGSSSNIGNNYVSWYQQLPGTAPKLLIYDNNKRPSGIPDRFSGSKSGTSTTLGITGLQTGDEADYYCGTWDSRLSAVVFGGGTKLTVLG | 68% | – | – |
| Erenumab CEX-HPLC Basic Fraction F8 (antibody, human IgG2, lambda, V domains shown, disulfide isoforms by RP-HPLC: 2.0% IgG2-B, 23.3% IgG2-A/B, 73.3% IgG2-A) VH: QVQLVESGGGVVQPGRSLRLSCAASGFTFSSFGMHWVRQAPGKGLEWVAVISFDGSIKYSVDSVKGRFTISRDNSKNTLFLQMNSLRAEDTAVYYCARDRLNYYDSSGYYHYKYYGMAVWGQGTTVTVSS VL: QSVLTQPPSVSAAPGQKVTISCSGSSSNIGNNYVSWYQQLPGTAPKLLIYDNNKRPSGIPDRFSGSKSGTSTTLGITGLQTGDEADYYCGTWDSRLSAVVFGGGTKLTVLG | – | 102% | – |
